Assay results taken from paper PMC3247018 (Journal of molecular biology, 2011).

B1: bacteriophage lambda gpE major capsid protein (natural protein, UniProt P03713 1-341, looked up)
chain: MSMYTTAQLLAANEQKFKFDPLFLRLFFRESYPFTTEKVYLSQIPGLVNMALYVSPIVSGEVIRSRGGSTSEFTPGYVKPKHEVNPQMTLRRLPDEDPQNLADPAYRRRRIIMQNMRDEELAIAQVEEMQAVSAVLKGKYTMTGEAFDPVEVDMGRSEENNITQSGGTEWSKRDKSTYDPTDDIEAYALNASGVVNIIVFDPKGWALFRSFKAVKEKLDTRRGSNSELETAVKDLGKAVSYKGMYGDVAIVVYSGQYVENGVKKNFLPDNTMVLGNTQARGLRTYGCIQDADAQREGINASARYPKNWVTTGDPAREFTMIQSAPLMLLADPDEFVSVQLA
B2: bacteriophage lambda gpNu3 scaffolding protein (natural protein, UniProt P03711-2 1-131, looked up)
chain: MTKETQSTTVSATASQADVTDVVPATEGENASAAQPDVNAQITAAVAAENSRIMGILNCEEAHGREEQARVLAETPGMTVKTARRILAAAPQSAQARSDTALDRLMQGAPAPLAAGNPASDAVNDLLNTPV

Legend:
[1] = biological target: bacteriophage lambda gpNu3 scaffolding protein (bacteriophage lambda) (UniProt P03711); test: AUC
SEC = biological target: the molecule itself; test: SEC
[2] = biological target: B1; test: SEC

bacteriophage lambda gpNu3 scaffolding protein (from UniProt P03711-2 1-131) (natural protein)
stoichiometry N [1]: 2

B1
binding result (SEC): binds

B2
binding result [2]: binds
